Assay results as given in paper PMC12458081.

Target: T1, Fkh1-DBD (Saccharomyces cerevisiae, UniProt P40466 299-421)
T1 sequence: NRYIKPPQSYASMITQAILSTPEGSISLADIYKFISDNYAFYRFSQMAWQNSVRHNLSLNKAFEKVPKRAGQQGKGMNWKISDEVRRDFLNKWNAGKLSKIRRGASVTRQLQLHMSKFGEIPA
Assay: X-ray crystallography

B1: 19-bp DNA binding oligo (dsDNA)
DNA 1: CGAAATGTAAACATACCGC
DNA 2: GCGGTATGTTTACATTTCG
binding result: binds
